Measured values reported in US20180371107A1 (published 2018).

T1: mouse NSP4 (mNSP4), form not stated in Example 6 (mouse, UniProt Q14B24 40-284, limits assumed)
T1 construct: also called recombinant mouse NSP4; purified mouse NSP4
T1 sequence (looked up): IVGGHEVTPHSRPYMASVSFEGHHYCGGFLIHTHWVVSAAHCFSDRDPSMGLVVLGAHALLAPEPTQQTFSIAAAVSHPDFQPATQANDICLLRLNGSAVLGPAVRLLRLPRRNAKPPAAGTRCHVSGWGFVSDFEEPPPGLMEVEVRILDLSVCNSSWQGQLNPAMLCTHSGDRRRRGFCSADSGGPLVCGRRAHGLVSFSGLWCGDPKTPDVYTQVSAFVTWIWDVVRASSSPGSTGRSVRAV

T2: mouse active NSP4 (mA-NSP4) (mouse, UniProt Q14B24 40-284)
T2 chain: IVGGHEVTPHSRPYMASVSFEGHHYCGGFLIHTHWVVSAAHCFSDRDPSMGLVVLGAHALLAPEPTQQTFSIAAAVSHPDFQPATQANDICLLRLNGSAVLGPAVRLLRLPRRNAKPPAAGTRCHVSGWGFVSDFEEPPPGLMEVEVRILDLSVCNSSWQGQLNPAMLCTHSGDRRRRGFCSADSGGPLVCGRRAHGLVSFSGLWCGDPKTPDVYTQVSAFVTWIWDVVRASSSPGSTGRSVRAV

T3: mouse zymogen NSP4 (mZ-NSP4) (mouse, UniProt Q14B24 36-284)
T3 chain: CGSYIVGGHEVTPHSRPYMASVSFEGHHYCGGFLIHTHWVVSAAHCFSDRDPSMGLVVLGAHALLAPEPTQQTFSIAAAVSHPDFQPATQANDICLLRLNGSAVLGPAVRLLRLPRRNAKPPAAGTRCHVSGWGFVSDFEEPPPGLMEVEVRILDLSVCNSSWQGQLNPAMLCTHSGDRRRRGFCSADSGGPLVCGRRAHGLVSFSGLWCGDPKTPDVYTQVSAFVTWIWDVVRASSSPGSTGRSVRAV

T4: human active NSP4 (hA-NSP4) (human, UniProt Q6UWY2 34-283)
T4 construct: range 34-283; Insect-cell material of the same construct was used for the crystal structures; also called mature form of human NSP4
T4 sequence (looked up): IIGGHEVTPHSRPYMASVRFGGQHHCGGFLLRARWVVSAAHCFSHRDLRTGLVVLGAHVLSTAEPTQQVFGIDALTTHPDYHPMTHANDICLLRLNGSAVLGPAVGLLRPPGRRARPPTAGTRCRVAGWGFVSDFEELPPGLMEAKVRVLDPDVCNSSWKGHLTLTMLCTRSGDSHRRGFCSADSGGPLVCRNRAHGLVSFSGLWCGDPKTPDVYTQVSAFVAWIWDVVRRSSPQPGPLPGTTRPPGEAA


What was measured:
[1] = molecular target: T1, mouse NSP4 (mNSP4), form not stated in …; test: ratio of phage IC50 against the parental clone 51.WT
[2] = molecular target: T1, mouse NSP4 (mNSP4), form not stated in …; test: phage competition binding assay (phage IC50), soluble mNSP4 competitor
[3] = molecular target: T2, mouse active NSP4 (mA-NSP4); test: BLI; no affinity
[4] = molecular target: T3, mouse zymogen NSP4 (mZ-NSP4); test: BLI; no affinity
[5] = molecular target: T4, human active NSP4 (hA-NSP4); test: competition phage ELISA (phage IC50): phage clone preincubated with soluble hA-NSP4, then on NSP4-coated wells

| Binder | Affinity improvement to mNSP4 [1] [fold] | IC50 [2] [nM] | Kd [3] [nM] | Kd [4] [nM] | IC50 [5] [nM] |
| --- | --- | --- | --- | --- | --- |
| affinity matured anti-NSP4 antibody clone 51.72 (Fab, V domains shown) VH: EVQLVESGGGLVQPGGSLRLSCAASGFTFSGSGIHWVRQAPGKGLEWVAWISPTGGNTYYADSVKGRFTISADTSKNTAYLQMNSLRAEDTAVYYCAKSLFHNVAFDYWGQGTLVTVSS VL: DIQMTQSPSSLSASVGDRVTITCRASQDVSTAVAWYQQKPGKAPKLLIYSASFLYSGVPSRFSGSGSGTDFTLTISSLQPEDFATYYCQQSYTAPPTFGQGTKVEIKR | 49.8 | 0.375 |  |  |  |
| anti-NSP4 antibody 1-2 (antibody, V domains shown) VH: EVQLVESGGGLVQPGGSLRLSCAASGFTFSGYSIHWVRQAPGKGLEWVAGISPTNGYTDYADSVKGRFTISADTSKNTAYLQMNSLRAEDTAVYYCARLVFYRGVMDYWGQGTLVTVSS VL: DIQMTQSPSSLSASVGDRVTITCRASQDVSTAVAWYQQKPGKAPKLLIYSASFLYSGVPSRFSGSGSGTDFTLTISSLQPEDFATYYCQQSYTTPPTFGQGTKVEIKR |  |  | > 1000 | > 1000 |  |
| anti-NSP4 antibody 2-2 (antibody, V domains shown) VH: EVQLVESGGGLVQPGGSLRLSCAASGFTFSSTAISWVRQAPGKGLEWVGEIYPSDGYTDYADSVKGRFTISADTSKNTAYLQMNSLRAEDTAVYYCARVKWAVSSLGVMDYWGQGTLVTVSS VL: DIQMTQSPSSLSASVGDRVTITCRASQDVSTAVAWYQQKPGKAPKLLIYSASFLYSGVPSRFSGSGSGTDFTLTISSLQPEDFATYYCQQSYTTPPTFGQGTKVEIKR |  |  | > 1000 |  | 10.1 |
| anti-NSP4 antibody 1-3 (antibody, V domains shown) VH: EVQLVESGGGLVQPGGSLRLSCAASGFTFSDNWISWVRQAPGKGLEWVGYIYPASGYTDYADSVKGRFTISADTSKNTAYLQMNSLRAEDTAVYYCASDSPHAYWYAMDYWGQGTLVTVSS VL: DIQMTQSPSSLSASVGDRVTITCRASQDVSTAVAWYQQKPGKAPKLLIYSASFLYSGVPSRFSGSGSGTDFTLTISSLQPEDFATYYCQQSYTTPPTFGQGTKVEIKR |  |  | > 1000 | > 1000 |  |
| anti-NSP4 antibody 4-3 (antibody, V domains shown) VH: EVQLVESGGGLVQPGGSLRLSCAASGFTFSSYDISWVRQAPGKGLEWVGTISPYDGYTDYADSVKGRFTISADTSKNTAYLQMNSLRAEDTAVYYCARYIRRYSVHYGMDYWGQGTLVTVSS VL: DIQMTQSPSSLSASVGDRVTITCRASQDVSTAVAWYQQKPGKAPKLLIYSASFLYSGVPSRFSGSGSGTDFTLTISSLQPEDFATYYCQQSYTTPPTFGQGTKVEIKR |  |  | > 1000 | > 1000 |  |
| anti-NSP4 antibody 4-4 (antibody, V domains shown) VH: EVQLVESGGGLVQPGGSLRLSCAASGFTFTSTSIHWVRQAPGKGLEWVAEITPHGGYTNYADSVKGRFTISADTSKNTAYLQMNSLRAEDTAVYYCARGRTKWGWLYGMDYWGQGTLVTVSS VL: DIQMTQSPSSLSASVGDRVTITCRASQDVSTAVAWYQQKPGKAPKLLIYSASFLYSGVPSRFSGSGSGTDFTLTISSLQPEDFATYYCQQSYTTPPTFGQGTKVEIKR |  |  | > 1000 | > 1000 | 1.48 |
| anti-NSP4 antibody 1-5 (antibody, V domains shown) VH: EVQLVESGGGLVQPGGSLRLSCAASGFTFTNNSISWVRQAPGKGLEWVGAISPNNGSTYYADSVKGRFTISADTSKNTAYLQMNSLRAEDTAVYYCARNAWHYSWVGVMDYWGQGTLVTVSS VL: DIQMTQSPSSLSASVGDRVTITCRASQDVSTAVAWYQQKPGKAPKLLIYSASFLYSGVPSRFSGSGSGTDFTLTISSLQPEDFATYYCQQSYTTPPTFGQGTKVEIKR |  |  | > 1000 | > 1000 |  |
| anti-NSP4 antibody 2-5 (antibody, V domains shown) VH: EVQLVESGGGLVQPGGSLRLSCAASGFTFTGYGISWVRQAPGKGLEWVGWIYPASGATYYADSVKGRFTISADTSKNTAYLQMNSLRAEDTAVYYCARHRAFDWYPYYIGSSVMDYWGQGTLVTVSS VL: DIQMTQSPSSLSASVGDRVTITCRASQDVSTAVAWYQQKPGKAPKLLIYSASFLYSGVPSRFSGSGSGTDFTLTISSLQPEDFATYYCQQSYTTPPTFGQGTKVEIKR |  |  | > 1000 |  | 5130 |
| anti-NSP4 antibody 2-3 (antibody, V domains shown) VH: EVQLVESGGGLVQPGGSLRLSCAASGFTFTDSDISWVRQAPGKGLEWVAWISPSDGATDYADSVKGRFTISADTSKNTAYLQMNSLRAEDTAVYYCAHEASDDDYAIDYWGQGTLVTVSS VL: DIQMTQSPSSLSASVGDRVTITCRASQDVSTAVAWYQQKPGKAPKLLIYSASFLYSGVPSRFSGSGSGTDFTLTISSLQPEDFATYYCQQSYTTPPTFGQGTKVEIKR |  |  |  |  | 4.96 |
| anti-NSP4 antibody 2-1 (antibody, V domains shown) VH: EVQLVESGGGLVQPGGSLRLSCAASGFTFTDYSIHWVRQAPGKGLEWVAEIYPYSGDTYYADSVKGRFTISADTSKNTAYLQMNSLRAEDTAVYYCARDGDGWFDWAMDYWGQGTLVTVSS VL: DIQMTQSPSSLSASVGDRVTITCRASQDVSTAVAWYQQKPGKAPKLLIYSASFLYSGVPSRFSGSGSGTDFTLTISSLQPEDFATYYCQQSYTTPPTFGQGTKVEIKR |  |  |  |  | 3.81 |
| anti-NSP4 antibody 2-4 (antibody, V domains shown) VH: EVQLVESGGGLVQPGGSLRLSCAASGFTFSDYWISWVRQAPGKGLEWVAGISPNNGDTYYADSVKGRFTISADTSKNTAYLQMNSLRAEDTAVYYCAREDDDERDYAMDYWGQGTLVTVSS VL: DIQMTQSPSSLSASVGDRVTITCRASQDVSTAVAWYQQKPGKAPKLLIYSASFLYSGVPSRFSGSGSGTDFTLTISSLQPEDFATYYCQQSYTTPPTFGQGTKVEIKR |  |  |  |  | 1.63 |
| anti-NSP4 antibody 4-2 (antibody, V domains shown) VH: EVQLVESGGGLVQPGGSLRLSCAASGFTFSGSDISWVRQAPGKGLEWVGEIYPSNGDTYYADSVKGRFTISADTSKNTAYLQMNSLRAEDTAVYYCARSVRPSWWAMDYWGQGTLVTVSS VL: DIQMTQSPSSLSASVGDRVTITCRASQDVSTAVAWYQQKPGKAPKLLIYSASFLYSGVPSRFSGSGSGTDFTLTISSLQPEDFATYYCQQSYTTPPTFGQGTKVEIKR |  |  | > 1000 | > 1000 | 84.8 |
| anti-NSP4 antibody 1-1 (antibody, V domains shown) VH: EVQLVESGGGLVQPGGSLRLSCAASGFTFSGSWISWVRQAPGKGLEWVGTISPYNGSTYYADSVKGRFTISADTSKNTAYLQMNSLRAEDTAVYYCARVLRPKVYASVMDYWGQGTLVTVSS VL: DIQMTQSPSSLSASVGDRVTITCRASQDVSTAVAWYQQKPGKAPKLLIYSASFLYSGVPSRFSGSGSGTDFTLTISSLQPEDFATYYCQQSYTTPPTFGQGTKVEIKR |  |  | > 1000 | > 1000 |  |
| affinity matured anti-NSP4 antibody clone 51.51 (Fab, V domains shown) VH: EVQLVESGGGLVQPGGSLRLSCAASGFTFSGSGIHWVRQAPGKGLEWVAWISPTGGNTYYADSVKGRFTISADTSKNTAYLQMNSLRAEDTAVYYCARGLFHNVAFDYWGQGTLVTVSS VL: DIQMTQSPSSLSASVGDRVTITCRASQDVSTAVAWYQQKPGKAPKLLIYSASFLYSGVPSRFSGSGSGTDFTLTISSLQPEDFATYYCQQSYTAPPTFGQGTKVEIKR | 63 | 0.296 |  |  |  |
| affinity matured anti-NSP4 antibody clone 51.30 (Fab, V domains shown) VH: EVQLVESGGGLVQPGGSLRLSCAASGFTFSGSGIHWVRQAPGKGLEWVAWIPTAGGNTYYADSVKGRFTISADTSKNTAYLQMNSLRAEDTAVYYCAKSLFHNVAFDYWGQGTLVTVSS VL: DIQMTQSPSSLSASVGDRVTITCRASQDVSTAVAWYQQKPGKAPKLLIYSASFLYSGVPSRFSGSGSGTDFTLTISSLQPEDFATYYCQQSYTAPPTFGQGTKVEIKR | 161 | 0.116 |  |  |  |
| affinity matured anti-NSP4 antibody clone 51.50 (Fab, V domains shown) VH: EVQLVESGGGLVQPGGSLRLSCAASGFTFSGSGIHWVRQAPGKGLEWVAWISPTGGNTYYADSVKGRFTISADTSKNTAYLQMNSLRAEDTAVYYCAKSLFHNVAFDYWGQGTLVTVSS VL: DIQMTQSPSSLSASVGDRVTITCRASQDVSTAVAWYQQKPGKAPKLLIYSASFLYSGVPSRFSGSGSGTDFTLTISSLQPEDFATYYCQQANSTPPTFGQGTKVEIKR | 178 | 0.105 |  |  |  |
| affinity matured anti-NSP4 antibody clone 51.82 (Fab, V domains shown) VH: EVQLVESGGGLVQPGGSLRLSCAASGFTFSGSGIHWVRQAPGKGLEWVAWISPTGGNTYYADSVKGRFTISADTSKNTAYLQMNSLRAEDTAVYYCARGLFHNVAFDYWGQGTLVTVSS VL: DIQMTQSPSSLSASVGDRVTITCRASQDVSTAVAWYQQKPGKAPKLLIYSASFLYSGVPSRFSGSGSGTDFTLTISSLQPEDFATYYCQQTYNAPPTFGQGTKVEIKR | 505 | 0.037 |  |  |  |
